Measured values as given in paper PMC6895263.
Residue numbers refer to the chain shown, from its start. Read-outs that look alike come from different tables or passages of the source.

Columns and labels:
GST-ZBTB24 ZF1-8 C407G = biological target: T1, GST-ZBTB24 ZF1-8 C407G (Mus musculus, UniProt Q80X44 288-519, C407G); assay: EMSA
T1 sequence: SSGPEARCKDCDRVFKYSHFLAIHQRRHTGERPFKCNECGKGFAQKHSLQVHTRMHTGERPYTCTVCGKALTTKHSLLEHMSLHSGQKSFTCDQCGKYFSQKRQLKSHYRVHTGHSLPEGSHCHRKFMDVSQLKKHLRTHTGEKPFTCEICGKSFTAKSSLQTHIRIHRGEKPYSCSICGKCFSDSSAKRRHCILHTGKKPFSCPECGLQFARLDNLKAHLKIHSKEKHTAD

GST-ZBTB24 ZF1-8 C382Y = biological target: T2, GST-ZBTB24 ZF1-8 C382Y (Mus musculus, UniProt Q80X44 288-519, C382Y); assay: EMSA
T2 sequence: T1 sequence with C95Y, G120C

ZBTB24 ZF4-8 [1] = biological target: T3, ZBTB24 ZF4-8 (Mus musculus, UniProt Q80X44 375-519); assay: X-ray crystallography
T3 sequence: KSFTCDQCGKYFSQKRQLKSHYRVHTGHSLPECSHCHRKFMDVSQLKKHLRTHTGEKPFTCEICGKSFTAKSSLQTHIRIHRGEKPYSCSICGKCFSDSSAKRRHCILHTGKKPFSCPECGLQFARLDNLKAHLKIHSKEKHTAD

ZBTB24 ZF4-8 [2] = biological target: T3, ZBTB24 ZF4-8; assay: X-ray crystallography; remark: listed apart in the source

B1: EMSA probe with ZBTB24 motif (dsDNA)
DNA 1: TCCACTGCCAGGACCTTT
DNA 2: AAAAGGTCCTGGCAGTGG
Question: Does B1 bind (GST-ZBTB24 ZF1-8 C407G)?
Answer: no binding

Question: Does B1 bind (GST-ZBTB24 ZF1-8 C382Y)?
Answer: no binding

B2: TG oligo (6ML2) (dsDNA)
DNA 1: TTTAGCTGCCAGGACCTGCG
DNA 2: ACGCAGGTCCTGGCAGCTAA
Question: Does B2 bind (ZBTB24 ZF4-8 [1])?
Answer: binds

B3: TT oligo (6ML3) (dsDNA)
DNA 1: TTTAGCTTCCAGGACCTGCG
DNA 2: ACGCAGGTCCTGGAAGCTAA
Question: Does B3 bind (ZBTB24 ZF4-8 [1])?
Answer: binds

B4: GT oligo (6ML4) (dsDNA)
DNA 1: TGCTTCGTCCAGGACCTGCG
DNA 2: ACGCAGGTCCTGGACGAAGC
Question: Does B4 bind (ZBTB24 ZF4-8 [2])?
Answer: binds
